US20170088616A1 (Kyowa Kirin, published 2017)

What was measured:
[1] = biological target: T1, Mucin chimeraTIM-3 (human TIM-3 with the mucin domain substituted for mouse TIM-3) (human/mouse chimera); assay: flow cytometry, transfected HEK293F cells
T1 construct: expressed on HEK293F cells

human TIM-3 [2] = biological target: T2, human TIM-3 (human, UniProt Q8TDQ0 22-301); assay: flow cytometry, Alexa-647 labeled antibody on human TIM-3 EoL-1 cells pre-bound with 10 ug/ml unlabeled competitor: 644
T2 construct: endogenous on Daudi cells in the ADCC test; also called HAVCR2; hTIM-3

human TIM-3 [3] = biological target: T2, human TIM-3; assay: flow cytometry, Alexa-647 labeled antibody on human TIM-3 EoL-1 cells pre-bound with 10 ug/ml unlabeled competitor: anti-DNP (negative control)

Binder | binding result [1] | binding result (human TIM-3 [2]) | binding result (human TIM-3 [3])
antibody 512 (antibody, V domains shown, Hybridoma isotype IgG1; recombinant form has human IgG1 constant region and kappa chain, made in FUT8-/- CHO cells (defucosylated)) VH: QVQLVESGGGVVQPGRSLRLSCAASGFTFNSYGMHWVRQAPGKGLEWVAVIWYDGSNKYYGDSVKGRFTISRDNSKNTLYLQMNSLRAEDTAVYYCAIWFGEMFSEYFQHWGQGTLVTVSS VL: AIQLTQSPSSLSASVGDRVTITCRASQGISSALAWYQQKPGKAPKLLIYDASSLESGVPSRFSGSGSGTDFTLTISSLQPEDFATYYCQQFNSYPLTFGGGTKVEIKR | binds | binds | 
antibody 8213 (antibody, V domains shown, Hybridoma isotype mouse IgG2b; recombinant form has mouse IgG2a constant region and kappa chain, made in HEK293F cells) VH: QVQLQQPGAELVKPGASVKLSCKASGYTFTSYWMHWVKQRPGQGLEWIGEINPSNGRTNYNEKFKTKATLTVDKSSSTAYMQLSSLTSEDSAVYYCAGGYYLYFDYWGQGTTLTVSS VL: DILMTQSPSSMSVSLGDTVNITCHASQGIRINIGWLQQKPGKSFKGLIYHGTNLEDGVPSRFSGSGSGPDYSLTISSLESEDFADYYCVQYGQFPWTFGGGTKLEMK | binds |  | binds
antibody 644 (antibody, V domains shown, Hybridoma isotype IgG4; recombinant form has human IgG1 constant region and kappa chain, made in FUT8-/- CHO cells (defucosylated)) VH: QVQLVESGGGLVKPGGSLRLSCAASGFTFSDYYMSWIRQAPGKGLEWVSFISSSGSIIYYADSVKGRFTISRDNAKNSLYLQMNSLRAEDTAVYYCARDGYSSSWYYYGMDVWGQGTTVTVSS VL: not shown | binds |  | binds
antibody 4545 (antibody, V domains shown, Hybridoma isotype IgG2; recombinant form has human IgG1 constant region and kappa chain, made in FUT8-/- CHO cells (defucosylated)) VH: QVQLQESGPGLVKPSETLSLTCTVSGGSFSRGGYYWNWIRQPPGKGLEWIGYIYYSGSTNYNPSLKSRVTISLDTSKNQFSLKLSSVTAADTAVYYCARDHYSSSWTFDYWGQGTLVTVSS VL: EIVLTQSPATLSLSPGERATLSCRASQSVSSYLAWYQQKPGQAPRLLIYDASNRATGIPARFSGSGSGTDFTLTISSLEPEDFAVYYCQQRSNWPPTFGQGTKLEIK | binds |  | binds
